In article PMC1318456:

Biological target: Non-muscle actin (99% pure; 80% β-actin, 20% γ-actin), polymerized (UniProt P60709)
Assay: co-sedimentation; actin filaments first bundled with α-actinin for 30 min at room temperature, CRP1 then added for a further 30 min, 10,000 x g; supernatant and pellet on gel, Gelcode Blue

fold increase of α-actinin in the actin bundles with CRP1 added, against without CRP1: 2 fold
Substance: α-actinin purified from chicken gizzard (from UniProt P05094 1-893) (natural protein)
